Molecular target: T1, recombinant human Rad17 protein tagged with a Flag epitope at its N terminus, purified from baculovirus infected insect cells
T1 chain: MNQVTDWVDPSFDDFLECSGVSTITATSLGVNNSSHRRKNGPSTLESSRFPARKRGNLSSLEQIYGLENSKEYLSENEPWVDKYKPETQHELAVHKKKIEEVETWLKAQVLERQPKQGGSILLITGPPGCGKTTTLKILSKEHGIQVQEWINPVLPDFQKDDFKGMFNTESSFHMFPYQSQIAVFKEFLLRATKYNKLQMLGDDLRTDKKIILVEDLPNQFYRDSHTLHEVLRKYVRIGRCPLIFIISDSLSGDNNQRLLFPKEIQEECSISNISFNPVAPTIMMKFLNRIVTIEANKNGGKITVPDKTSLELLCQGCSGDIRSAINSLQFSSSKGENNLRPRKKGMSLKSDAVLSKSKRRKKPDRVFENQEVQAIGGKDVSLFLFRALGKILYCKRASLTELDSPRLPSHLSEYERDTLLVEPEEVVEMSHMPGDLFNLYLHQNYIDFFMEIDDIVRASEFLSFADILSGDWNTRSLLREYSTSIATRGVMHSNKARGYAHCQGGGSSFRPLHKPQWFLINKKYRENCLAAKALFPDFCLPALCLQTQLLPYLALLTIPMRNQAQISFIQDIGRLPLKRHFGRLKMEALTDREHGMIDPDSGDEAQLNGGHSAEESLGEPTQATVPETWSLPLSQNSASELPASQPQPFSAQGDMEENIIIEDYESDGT

B1: ATR-ATRIP complex reconstituted in vitro from purified ATR and purified ATRIP (protein)
chain 1: not shown
chain 2: MAGTSAPGSKRRSEPPAPRPGPPPGTGHPPSKRARGFSAAAAPDPDDPFGAHGDFTADDLEELDTLASQALSQCPAAARDVSSDHKVHRLLDGMSKNPSGKNRETVPIKDNFELEVLQAQYKELKEKMKVMEEEVLIKNGEIKILRDSLHQTESVLEEQRRSHFLLEQEKTQALSDKEKEFSKKLQSLQSELQFKDAEMNELRTKLQTSERANKLAAPSVSHVSPRKNPSVVIKPEACSPQFGKTSFPTKESFSANMSLPHPCQTESGYKPLVGREDSKPHSLRGDSIKQEEAQKSFVDSWRQRSNTQGSILINLLLKQPLIPGSSLSLCHLLSSSSESPAGTPLQPPGFGSTLAGMSGLRTTGSYDGSFSLSALREAQNLAFTGLNLVARNECSRDGDPAEGGRRAFPLCQLPGAVHFLPLVQFFIGLHCQALQDLAAAKRSGAPGDSPTHSSCVSSGVETNPEDSVCILEGFSVTALSILQHLVCHSGAVVSLLLSGVGADSAAGEGNRSLVHRLSDGDMTSALRGVADDQGQHPLLKMLLHLLAFSSAATGHLQASVLTQCLKVLVKLAENTSCDFLPRFQCVFQVLPKCLSPETPLPSVLLAVELLSLLADHDQLAPQLCSHSEGCLLLLLYMYITSRPDRVALETQWLQLEQEVVWLLAKLGVQSPLPPVTGSNCQCNVEVVRALTVMLHRQWLTVRRAGGPPRTDQQRRTVRCLRDTVLLLHGLSQKDKLFMMHCVEVLHQFDQVMPGVSMLIRGLPDVTDCEEAALDDLCAAETDVEDPEVECG
phosphorylated Rad17 on DNA (Ser635P): human replication protein A (RPA) stimulates the phosphorylation of Rad17 by the ATR-ATRIP complex

Source: patent US20030165934
